Data on 1 substance can be found in publication PMC9722636.

In general, stoichiometry N refers to the number of molecules, sites or subunits per partner or assembly.

The test addresses recombinant HAstV MLB1 capsid spike domain (residues 399-653 of the HAstV MLB1 capsid protein) (Human astrovirus MLB1). The test is described as follows: SEC. On the technique in general: In gel filtration, larger molecules generally elute earlier.

Consider “recombinant HAstV MLB1 capsid spike domain (residues 399-653 of the HAstV MLB1 capsid protein) (domain or fragment)”, for which the stoichiometry N was found to be 2.
